Measurements as given in patent US9163063B2, “Peptides and nanoparticles for therapeutic and diagnostic applications” (Trustees of Dartmouth College, priority 2009, dated 2015).
Ends that are not written are not given here. * marks the point of attachment. Biotin = O=C1N[C@H]2[C@H](CS[C@H]2CCCCC(=O)*)N1

How the values were obtained:
[1] = target: T1, PDZ domain of GIPC/synectin (Homo sapiens, UniProt O14908); experiment: Phage ELISA / phage binding assay with N-terminal biotinylated peptides; conditions: GIPC-PDZ T7 phage
T1 construct: dsDNA encoding the PDZ domain of GIPC/synectin was double-digested with EcoRI and HindIII; made in house; host or cells: T7 phage grown in E. coli BLT5403
T1 sequence (O14908 133-213 limits assumed): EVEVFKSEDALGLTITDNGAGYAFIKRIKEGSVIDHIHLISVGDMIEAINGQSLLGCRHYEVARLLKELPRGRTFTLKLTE
Description: dsDNA encoding the PDZ domain of GIPC/synectin was double-digested with EcoRI and HindIII, and the DNA (0.8 μL of a 45 nM (7.7 ng/μL) solution) was used in the ligation reaction with the T7 Select 10-3 vector arms (Novagen, 0.5 μL), along with 10× ligase buffer (0.25 μL); ATP (10 mM, 0.25 μL, final concentration 1 mM); DTT (100 mM, 0.25 μL); and T4 DNA ligase (0.5 μL, 1 unit/μL). The sample was incubated at 16° C. for 16 h. The T7 phage packaging reaction was performed by adding packaging extract (Novagen, 12.5 μL, or half the manufacturer's recommended amount) to the ligation reaction sample (2.5 μL) and allowing it to incubate for 2 h at room temperature. The reaction was stopped by the addition of a sterile LB medium (135 μL). A plaque assay was performed to determine the number of recombinant phage generated. E. coli BTL5403 was grown at 37° C. with shaking in LB/Amp50 medium (10 mL) until OD˜1.0 was reached. Top agarose (10 mL) was melted and equilibrated to this temperature. A series of dilutions was prepared prior to plating the phage. The first dilution was generated by adding packaged phage (10 μL) to LB/Amp50 (990 μL) for a total of 100-fold dilution (10^2). […] Plaques generated were counted to determine the titer and the number of recombinants generated. […]

EGFR = EGFR expression after integrin-tail peptide in AsPC1 cells; format: cell-based, human; conditions: AsPC1 pancreatic adenocarcinoma cells
Source text: In addition, with its PDZ domain, GIPC is associated with a vast list of transmembrane receptors, including integrin α6 and α 5 that are expressed in several pancreatic cancer cell lines. […] EGFR is a receptor tyrosine kinase highly expressed in pancreatic cancer cells and is a prognostic factor for overall survival. […] A peptide designed to disrupt the interaction between the PDZ domain and the cytoplasmic tail of integrin α 5 and α 6 (KERLTSDA, SEQ ID NO. 8) was utilized.

binding to the PDZ domain of GIPC/synectin [1]	Substance	EGFR expression (EGFR)
not recognized	KKETEV (Biotin-KKETEV)	
	KERLTSDA [K-E-R-L-T-S-D-A]	down regulation of EGFR
not recognized	KKETAV	
